In paper PMC7600612 (2020) one finds Kd, koff and kon data, which are given here for eight molecules.

One experiment deals with FGFRL1 (Homo sapiens) (UniProt Q8N441). Conditions: cited from earlier work.
The target of a further experiment is FGFR1 (Homo sapiens) (UniProt P11362). Conditions: cited from earlier work.
In experiment [1] the target is Human FGF8b (fibroblast growth factor 8, isoform b) (human). The experiment can be described thus: SPR; Biacore X100; FGF8b covalently attached (amine coupling, 295 RU) to a matrix-free C1 chip; FGFRL1 polypeptides injected at 3.125-50 nM in HBS-EP+ (10 mM HEPES, 150 mM NaCl, 3 mM EDTA, 0.05% P20, pH 7.4), 30 μL/min, 120 s association, 240 s dissociation; global kinetic fit to a 1:1 model. In general terms: SPR reads the build-up and loss of mass on a sensor chip optically.

Another experiment deals with FGFR2 (Homo sapiens) (UniProt P21802). Conditions: cited from earlier work.
Another experiment addresses T1, FGFRL1 Ig2 (Homo sapiens, UniProt Q8N441).
T1 chain: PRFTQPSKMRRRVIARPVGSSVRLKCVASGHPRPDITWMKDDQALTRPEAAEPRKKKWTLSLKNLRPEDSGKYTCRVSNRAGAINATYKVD
The experiment can be described thus: SPR.

FGFRL1 (Homo sapiens), sequence (Q8N441 25-378): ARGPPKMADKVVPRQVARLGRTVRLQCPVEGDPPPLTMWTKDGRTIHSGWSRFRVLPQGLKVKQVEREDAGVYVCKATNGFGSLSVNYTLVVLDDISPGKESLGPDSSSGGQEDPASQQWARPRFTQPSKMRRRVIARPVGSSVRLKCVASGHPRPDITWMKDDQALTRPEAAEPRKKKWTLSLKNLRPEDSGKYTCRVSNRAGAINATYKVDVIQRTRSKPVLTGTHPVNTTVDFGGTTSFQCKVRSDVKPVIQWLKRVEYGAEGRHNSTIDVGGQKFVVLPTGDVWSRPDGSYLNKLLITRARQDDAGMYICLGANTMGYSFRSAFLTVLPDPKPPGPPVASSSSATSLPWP
FGFR2 (Homo sapiens), sequence (P21802 22-377): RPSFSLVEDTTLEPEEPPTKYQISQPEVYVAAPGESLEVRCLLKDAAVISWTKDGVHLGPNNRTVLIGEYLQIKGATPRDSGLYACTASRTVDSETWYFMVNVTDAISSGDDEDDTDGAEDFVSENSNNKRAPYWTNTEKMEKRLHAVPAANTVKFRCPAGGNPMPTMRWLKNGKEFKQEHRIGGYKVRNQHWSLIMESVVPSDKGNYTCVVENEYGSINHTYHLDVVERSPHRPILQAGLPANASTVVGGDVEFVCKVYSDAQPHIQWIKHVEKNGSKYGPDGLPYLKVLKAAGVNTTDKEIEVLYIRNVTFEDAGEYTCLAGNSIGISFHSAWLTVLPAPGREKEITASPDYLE
FGFR1 (Homo sapiens), sequence (P11362 22-822 P252R): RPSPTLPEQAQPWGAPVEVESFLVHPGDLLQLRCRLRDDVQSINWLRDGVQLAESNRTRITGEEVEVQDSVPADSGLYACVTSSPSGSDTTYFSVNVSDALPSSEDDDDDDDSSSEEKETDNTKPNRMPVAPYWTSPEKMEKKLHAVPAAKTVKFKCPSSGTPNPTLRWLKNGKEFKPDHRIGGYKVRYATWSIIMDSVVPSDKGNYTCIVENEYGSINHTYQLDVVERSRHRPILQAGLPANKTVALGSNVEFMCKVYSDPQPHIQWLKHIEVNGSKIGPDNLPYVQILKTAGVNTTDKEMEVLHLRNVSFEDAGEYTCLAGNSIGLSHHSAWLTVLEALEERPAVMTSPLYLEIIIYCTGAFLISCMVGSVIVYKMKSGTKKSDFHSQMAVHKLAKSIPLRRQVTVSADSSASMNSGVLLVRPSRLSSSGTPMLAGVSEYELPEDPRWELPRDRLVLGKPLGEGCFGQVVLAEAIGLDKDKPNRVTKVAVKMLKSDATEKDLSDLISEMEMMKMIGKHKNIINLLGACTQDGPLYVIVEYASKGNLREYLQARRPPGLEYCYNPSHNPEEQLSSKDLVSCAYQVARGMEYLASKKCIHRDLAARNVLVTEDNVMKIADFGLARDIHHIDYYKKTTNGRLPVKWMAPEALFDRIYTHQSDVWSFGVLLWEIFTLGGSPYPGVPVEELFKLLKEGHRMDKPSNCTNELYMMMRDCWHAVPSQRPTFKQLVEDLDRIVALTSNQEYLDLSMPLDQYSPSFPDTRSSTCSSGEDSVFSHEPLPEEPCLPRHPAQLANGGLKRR

Broadly, the Kd is the constant that tells how readily two partners part at equilibrium. For the molecule FGF3 (from UniProt P11487), the Kd in the experiment with FGFRL1 (Homo sapiens) is 4.2 nM.

For FGF2 (from UniProt P09038), the Kd in the experiment with FGFR1 (Homo sapiens) is 24 nM.

Broadly, the koff is a measure of how fast the partners let go of each other. Low readings indicate slow dissociation, high ones fast dissociation. Broadly, the kon is the second-order rate constant of association. A higher kon goes with fast association. In experiment [1], “FGFRL1 Ig23 construct (from UniProt Q8N441 25-26; Q8N441 118-357) (domain or fragment)” had a Kd of 2.07 nM, a koff of 0.000806 s⁻¹ and a kon of 390000 M⁻¹ s⁻¹.

Turning to FGF8 (from UniProt P55075), the Kd in the experiment with FGFR2 (Homo sapiens) is 130 nM.

On to “FGFRL1 Ig123 (complete extracellular domain of human fibroblast growth factor receptor-like protein 1) (from UniProt Q8N441 25-359) (domain or fragment)”, for which, in experiment [1], the Kd was 3.37 nM, the koff was found to be 0.00126 s⁻¹ and the kon worked out at 373000 M⁻¹ s⁻¹.

In experiment [1], “FGFRL1 Ig12 construct (from UniProt Q8N441 25-239) (domain or fragment)” came in with a Kd of 1.94 nM, a koff of 0.0107 s⁻¹ and a kon of 5.49e+06 M⁻¹ s⁻¹.

In experiment [1], “FGFRL1 Ig2 construct (from UniProt Q8N441 25-26; Q8N441 118-239) (domain or fragment)” showed a Kd of 1.73 nM, a koff of 0.0092 s⁻¹ and a kon of 5.32e+06 M⁻¹ s⁻¹.

B1: FGF8 (protein)
chain: QEGPGRGPALGRELASLFRAGREPQGVSQQHVREQSLVTDQLSRRLIRTYQLYSRTSGKHVQVLANKRINAMAEDGDPFAKLIVETDTFGSRVRVRGAETGLYICMNKKGKLIAKSNGKGKDCVFTEIVLENNYTALQNAKYEGWYMAFTRKGRPRKGSKTRQHQREVHFMKRLPRGHHTTEQSLRFEFLNYPPFTRSLRGSQRTWAPEPR
Molecule B1 yielded a Kd with FGFRL1 Ig2 of 1.7 nM.
